Biological target: T1, His-PRL-2 (human, UniProt Q12974 1-167)
T1 construct: human PRL-2 (PTP4A2), 19-kDa construct; also called recombinant PRL-2; 19-kDa PRL-2 construct; source: Escherichia coli BL21, purified
T1 sequence (looked up): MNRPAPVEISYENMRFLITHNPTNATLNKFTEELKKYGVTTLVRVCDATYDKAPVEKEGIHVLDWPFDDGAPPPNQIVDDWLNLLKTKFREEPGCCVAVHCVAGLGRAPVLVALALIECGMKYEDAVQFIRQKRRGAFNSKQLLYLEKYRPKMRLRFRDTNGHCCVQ
Test: pull-down; in vitro; 20 ng GST-CBS on glutathione-Sepharose beads, equimolar His-PRL-2 (~10 ng), 4 °C 1 h; 150 mM NaCl, 20 mM Tris, 1% Triton-X, 5 mM 2-mercaptoethanol; without inhibitor (control)
Settings: both partners purified

B1: GST-CBS (Bateman module of human CNNM3, amino acids 302-452) (domain or fragment, UniProt Q8NE01 302-452, looked up)
chain: SDLSKGVLRCRTVEDVLTPLEDCFMLDASTVLDFGVLASIMQSGHTRIPVYEEERSNIVDMLYLKDLAFVDPEDCTPLSTITRFYNHPLHFVFNDTKLDAVLEEFKRGKSHLAIVQKVNNEGEGDPFYEVLGLVTLEDVIEEIIRSEILDE
notes: human CNNM3, Bateman module, amino acids 302-452; also called GST-2xCBS; CBS tandem domain of CNNM3; source: Escherichia coli BL21, purified
binding result: binds

Reference: article PMC4865918, “Inhibition of PRL-2·CNNM3 Protein Complex Formation Decreases Breast Cancer Proliferation and Tumor Growth*” (The Journal of Biological Chemistry, 2016)
